From patent US20250250357A1 (NANJING ZAIMING PHARMACEUTICAL, published 2025)

T1: human MSLN-R1-his protein (human, UniProt Q13421 296-390)
T1 construct: Region 1 of human MSLN, His-tagged; also called human MSLN-R1 protein; hMSLN-R1-his; not shown: His tag
T1 chain: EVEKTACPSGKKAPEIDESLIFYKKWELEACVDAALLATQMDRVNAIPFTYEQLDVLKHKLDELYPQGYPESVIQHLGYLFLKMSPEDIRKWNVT


Assays:
[1] = target: T1, human MSLN-R1-his protein; experiment: ELISA, coated MSLN-R1;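 note: serially diluted chimeric antibodies bound to the coated, BSA-blocked plate for 2 h at 37 °C, with TMB colour read after acid stop and a negative control antibody alongside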
Method: The plate was sealed with a plastic film and incubated at 4° C. overnight. The next day, the plate was washed twice with PBST, and a blocking buffer [PBS+2% (w/w) BSA] was added for blocking at room temperature for 2 h. The blocking buffer was discarded, and a chimeric antibody or negative control antibody serially diluted from 100 nM was added at 50 μL/well. After incubation at 37° C. for 2 h, the plate was washed 3 times with PBST. […] After incubation at 37° C. for 2 h, the plate was washed 5 times with PBST. A TMB substrate was added at 50 μL/well for incubation at room temperature for 5-10 min, and then a stop solution (1.0 N HCl) was added at 50 μL/well.

[2] = target: T2, human MSLN-FL-his protein (human, UniProt Q13421 296-580); experiment: ELISA, coated MSLN full-length;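 note: binding of chimeric antibodies to plate-bound antigen, read by TMB colour after acid stop, antibody incubated 2 h at 37 °C, negative control antibody run alongside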
T2 construct: also called human MSLN full-length protein; hMSLN-FL-his; not shown: His tag

| Binder | OD450 at 0.0001 nM [1] [OD450] | OD450 at 0.001 nM [1] [OD450] | OD450 at 0.01 nM [1] [OD450] | OD450 at 0.1 nM [1] [OD450] | OD450 at 1 nM [1] [OD450] | OD450 at 10 nM [1] [OD450] | OD450 at 100 nM [1] [OD450] | OD450 at none (no antibody) [1] [OD450] | OD450 at 0.0001 nM [2] [OD450] | OD450 at 0.001 nM [2] [OD450] | OD450 at 0.01 nM [2] [OD450] | OD450 at 0.1 nM [2] [OD450] | OD450 at 1 nM [2] [OD450] | OD450 at 10 nM [2] [OD450] | OD450 at 100 nM [2] [OD450] | OD450 at none (no antibody) [2] [OD450] |
| --- | --- | --- | --- | --- | --- | --- | --- | --- | --- | --- | --- | --- | --- | --- | --- | --- |
| S009-F2.23.12 (antibody, human IgG1, kappa, V domains shown, Human-murine chimeric antibody, human IgG1/kappa constant regions) VH: QVQLQQPGTELVKPGASVKLSCKASGYTFTNYWMHWVKQRPGQGLEWIGNINPSNGGPYYNERFRSKATLTVDKSSSTAYMQLSSLTSEDSAVYYCARPYYGSSYGYFDYWGQGTTLTVSS VL: DIQMTQSPSSLSASLGGKVTITCKASQDINKYIAWYQHKPGKGPRLLIHYTSELQPGIPSRFSGNGSGRDYSFSISNLEPEDIATYYCLQYANPLRTFGGGTKLEIKR | 0.05 | 0.05 | 0.06 | 0.05 | 0.05 | 0.05 | 0.06 | 0.06 | 0.05 | 0.06 | 0.24 | 1.27 | 2.21 | 2.5 | 2.72 | 0.06 |
| S009-F2.47.1 (antibody, human IgG1, kappa, V domains shown, Human-murine chimeric antibody, human IgG1/kappa constant regions) VH: QVQLQQPGAELVKPGASVKLSCKASGYTFTSYWMHWVKQRPGQGLEWIGMIHPNSGSTNYNEKFKSKATLTVDKSSSTAYMQLSSLTSEDSAVYYCARPVVPYWYFDVWGTGTTVTVSS VL: DIVMTQSQKFMSTTVGDRVSITCKASQNVGTAVAWYQQKPGQSPKLLIYSASNRYTGVPDRFTGSGSGTDFTLTISNMQSEDLADYFCQQSSSYPLTFGAGTKLELKR | 0.05 | 0.05 | 0.05 | 0.05 | 0.09 | 0.23 | 0.36 | 0.06 | 0.06 | 0.1 | 0.45 | 1.78 | 2.31 | 2.4 | 2.57 | 0.06 |
| S009-F2.39.3 (antibody, human IgG1, kappa, V domains shown, Human-murine chimeric antibody, human IgG1/kappa constant regions) VH: QVQLQQPGTELVKPGASVKLSCKASGYTFTNYWMHWVKQRPGQGLEWIGNINPSSGDSYYNERFMSKAKMTVDKSSSTAYMQLSSLTSEDSAVYYCARSGGLWLAFWGPGTLVTVSA VL: DIVMTQSPSSLAMSVGQKVTMSCKSSQTLLNSVSQNNYLAWYQQKPGQSPTLLVYFASTRESGVPDRFIGGGSGTDFTLTISSVQAEDLADYFCQQHYRTPYTFGGGTNLEIKR | 0.05 | 0.05 | 0.05 | 0.05 | 0.05 | 0.06 | 0.07 | 0.06 | 0.05 | 0.05 | 0.08 | 0.42 | 1.57 | 2.37 | 2.53 | 0.06 |
